# Measurements: the domain aggregation screens of Martell et al. (2025)
# Experiment: soluble fraction after stress (log2 fold change); higher = more stays soluble; pooled small domains, quantitative proteomics
# Details: stress: 75 degC
# 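Note: 20 min heating vs room temperature control held 20 min.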
row,Sequence,soluble fraction (log2)
1,HMSGKWKIRILWYIAEYEVQRFGELRRRLGDITQSTLTEQLRELEQDGFVSRYVYQEVPSKVEYSLTE,0.197
2,HMSGKWSILILHALEQGPKRFNVLHRELSGITQATLTKQLRQLEEDGIILRKAYPQIPPKVEYQLTEIG,-1.82
3,HMSGNPLDTYYSKWSAEIKKGSPNAVISKEGDKYYVSIPGENRMAIIYENPHLIRMVNATRNIHVE,-0.092
4,HMSGPSDRDLFDEALALLSGSGREPDYHEARIRLGTLVEQFPESKWAEGAKALLSMLDRVSALQV,0.247
5,HMSGPVITEERNIANALISGLANMKETPTREQVERKAQQIAELFGYTGDLRNIITEAMISVDT,-0.0406
6,HMSGRPPTYTAEERSAVIAAALSRPADLGLPFASWTLDRLVAYLGEKGIGMKRSRMSEVLLAEGLKW,-2.02
7,HMSGSGYAYVDKYGYSHVVKDYDTAKNYASDGNVYNYSGSHKGGYAYDADNYRVPLDLPGSKPYG,0.191
8,HMSGSIIQQAENLERQFGDTREAILGTLSDPKMSEEILETLMERYNKQHGTNWDKNTWAEEWAKANK,0.682
9,HMSGSILVQVSATDLNIRKGPGTNYGTTGKYTGKGTFTIVETRSGQGSNAGWGKLKSGAGWISLDYAKR,-1.54
10,HMSGTESMIEGRGEARTAIDGEGKVFFQGEYWTAQSDQFIPQGAKVRIKKVEGLNLIVEEIK,0.065
11,HMSGTYIVTVQANTLDIYKSMTSNDTIGKANKGDVFQILEDMGGGYAKVSYNDVEGYISIKDGDTSIDEM,-0.389
12,HMSGVIVPDIYNKTLAEAVASLEGEGFSTEKKEGYSDTVPKGNVMSQKPEAGTSAERGSTVTITISQGPQ,0.0579
13,HMSGWIATGTATSTGNDVRVRSTPDATVNNNILLTLNKGNRFEIDGQTQNGFYHIKVNDTIGWISGLYVKE,-0.976
14,HMSGYFSDKKLNELFEQYLIMREKKGKPVVGYQLKILIDRLNQVAANTKEKIEVVSNAIAGDWNTFYPIKR,-2.07
15,HMSHDTLVYRLAQMLVKLNQGEKLDPQQLAEEFGVNLRTIQRDLNVRFAYLQLEKTDGRYHLDPTFL,-1.46
16,HMSHLTKKQEEVLLFIRDYYEEEGRSPSYSDIQHHFGLKSKSSVQDYIGYLKKAGFLQKSVGSRAIELV,-2.52
17,HMSHQIIIVAVELDPSTERIVYYLSKNGISINVLFFKVFQHGDEQFLSRVWLIDPSETQTNAALA,-0.726
18,HMSIESMVGRFGVVTKDVVANEMAGKVKVGREEFRATADIAVSSGTKVKVTHAEGITLTVVPE,0.611
19,HMSIGKEATPDDIVPNIRVYHATFGYGNVIKTDGVSHDKKAVVNFDSVGEKTLLLKFAKLILPY,-0.557
20,HMSIGLEGFVGKLGISTSDLRPSGWGEFDAKKLFVVTEGEFVDRKEKIEILSVDGNRILVRKIS,-1.56
21,HMSILPGVYRHYKGNHYQVFYLAKHSETLEDMVVYQALYGERGIWVRPASMWNETVDDQGKQVKRFTYI,-3.58
22,HMSILYNAVKGTLVSSGALTADSWYKISSFGTASALPALKVGSIFKTPEGAGDAITLASGDSVYPLTLT,-1.28
23,HMSINQTIEGKKQGYWIIYGNMRNLQEYLSNEVIEEGQFKNSRKEGVWRKYFPGGQMKSEITYINGRP,-0.266
24,HMSINTIIAKNLNRLRNERNLSLGQLAELSGVSKVMLSQIEKGDSNPTVNTIWKIASGLNVPYTAILDQP,-0.798
25,HMSIPVLKDGTYESWGNEKVYKVGDRVMVGSNGYVAKWWNQDETPEKAIINPNDSPWRPMTESEIMEVLK,-0.128
26,HMSISEADAKKIALEKVPGATDSNLRIKTDYDDGIMKYEVKIVYNEMKYEFDIDAATGTILEWESESVY,-1.37

row,Sequence,soluble fraction (log2)
1,HMSISSSEAARSAVASSGGTVLGVSKASHGGYKAWAVRIQRADGSVVTGYVDRASGTVYDWVVNQAA,-0.663
2,HMSKEDDSLVVTFRRMLLEEVDLHELSRIDANQRRARLERVIAHLVSREGVILSASERNQLVRRVVDEAV,-2
3,HMSKEEAIQAMKEGKKVTHRFFSSDEWMTIENGFLLLEDGVRISLEDFFNFRSDSLWDNGYELYNPH,-0.628
4,HMSKFSDTLVYLRKRAGFSQQELADKMEVSRSLVGMYESGQRMPSYEMLEALADIFNVNIDFLTGH,-1.28
5,HMSKIRSEINKFSSDADKPILEWLFERYHWASQWRFVARFSEQRYGVLSYEINRVWEPTIEGRALYDQL,-2.27
6,HMSKKMLASIFDTISGIGKKRLKKIWDNYTSLNELKDDSLENIYAKTQIPINLITKIKEKLE,-0.913
7,HMSKKMTNEEILNFLKKVLIKHGKISGFIIDEDDNGPSSSVVASRFGGLLNAYKLINYTPER,-0.906
8,HMSKMTLGENLRLLRREKGLSQEQVAQTLFVARQTISKWENGQAEPGVESLKALAKLYGVSLDRLVGA,-1.01
9,HMSKPLEVFKLTSEPFGFSFNTALGRSYTVEATGDLGVWKAVELFQGSGGEIRFTAKPTSSGGAQFFRVFV,0.0649
10,HMSKPVYILINKPKGFLASSTDKKVKKSVNDLINISNLNKIYPFDNMGRTSSGLLLLSNDLYFKKHFKDKI,0.451
11,HMSKQKRIKYFLSILNIKSIKQFRKKDLDYFYQKRFIEIQKSSKDKKLVSNQLIELNAAKEYLDEIDFEN,-3.78
12,HMSKQQVRSILDDIPNIGETRRKALMRQFQSLEKIREASVGQLREVDGMNEKAAQSVYQFFHK,-0.0426
13,HMSKQVDVVIYILENTKAADNTYIGTYRKTADGAGVSLDTATKVMRKLQENNFIKKVQNGVYQISPLIMM,-1.42
14,HMSKRDDLLDQASEWLAKLDRDLTVVEERELKAWLGESAAHRETFIQMAKLWDKMESLSRLTDL,-0.898
15,HMSKSVEQRRQQIVAWVKEHGQSQVEDLAVRFATSEVTIRKDLAALSQQGLLIRQFGGAVPVPA,-0.982
16,HMSKTQYTFKEVGSQFQLFAPSTKHTIMISADHPKYGWLTNQDQGRVINVYDTGKMTSSQDYYGLYKEVT,0.587
17,HMSKTQYTFREVGSQFELHAPSTNHKIMVDANHPKYGWLSSQEAGRVINVYESGKMTSSQDYYGLYKQS,-0.092
18,HMSLANTSVKEMLNDLVKNEEPSKPLSDEALVKIFKEKGVKIARRTVAKYRAELNILPSHLRRT,-1.56
19,HMSLAVFLQGLLEEKQLKKADVIRRTGMEPTYGYHIFDGHKKHPARSKVLLLALAMGLTVKEAQHLLYYAG,-0.423
20,HMSLDAAAVASKLIKRLSKSPGRRFALDDLAVDVGLPHEQGRPLVRSALELLVRTQQAVEGPPNVFRLFF,-2.51
21,HMSLEDMILSLSSRIRRGESLHFRELLVAIETKSGMVTIFMAVLELLKQQVMEMRYEDDDIIFT,-1.04
22,HMSLEEIPLEERLGPGGLDPVAVYDSLPREMRDAFDSGSVSALREFVNALPAEDAARHMKAMVDSGLWVPT,0.148
23,HMSLETRRYQLPRTDAQTASGLLRSLSGLPGVREVNLSGEGVAYLKVDSKGFDEQNVIKLLAGE,0.47
24,HMSLHSITIPQEFIGAVIGPGGKVIQEIQKQTGTTITITEKDNKGYVDIFGEDKGALDSALARIKEIVAIP,0.289
25,HMSLIDYLNELMNEKNITVAQVAKNSGIGEYVYKIFNGERNAKRDTLVAISFGMHLNFEETQLLLRIA,-1.19
26,HMSLPALALRQADSLAFKQVIYHDRVVPFNTLARDFVLKLTGKPSYGGMTPEQVVGGWLLRPEVWQNEPM,0.192

row,Sequence,soluble fraction (log2)
1,HMSLPAYIKISEVIARRINAGQILAGDRLPNERTMAVEFGVAVGTLRKALYHLQVRGLVTRKHGSGNYINK,-0.221
2,HMSLPKIVVPTDVTVSQLAKYLEVDAISIIKQLFGMGVVASLNQRLEDEIIQLIGNEFGKEIIFSE,0.162
3,HMSLPQSKDAVITILRTLPQLDTRAPEVYKLLGPHALDIILEDPEQVAKKINHVGVATAKLWQQALLGFK,-0.751
4,HMSLQDYYQVLGVFYNAGDKEIKRRWKELINQYHPDLAQAKGASPEEIENYTLKMAEINNAYEQIMKSRKA,-0.396
5,HMSLSASELDQLRMMTKVSHMYHTRGMVQIDIARSLGLSQARVSRLLSAAEDANIVRTVVVA,-0.392
6,HMSLTAQVFTDRGKVLLSENKFTEAIDQFTKALAMDKVYIEALNRRIEAYQHLGLTELAAKDEALLGTL,-1.16
7,HMSLTPSQDANRSAILDAARDLFARYGFKKTTMEDIAMALRKGKSSLYYYFKNKEDIFQAVIDS,-1.25
8,HMSMDAVSLANRLLRFFQKRPGRKFTAADLAFETGMNERTGKSLVTSALEILSRTNQIEADGDGFRLKM,0.0354
9,HMSMEIQEIIRQLREKNDWSQEDMAERVGLSKNGYAKIERGETNLNLERLEQIANLFDLSVIDLIEMS,-0.764
10,HMSMEKNWVPSEDVIEILTRAGMNENFIRELIPEFIIYWSERKDVLISYDSKFIEHARLKWAQHNAE,0.454
11,HMSMFTPAQVAQTLTVPPSTLRRWAKRFAPFLSPQSGKKRTYTVADLDTFQRIKELSAQGYTFAQIDQAL,-1.32
12,HMSMLSQERQSLILDIIKEQGSVTVTRLTEILQSSESTVRRDLSYLASKGKINKVHGGATALG,-0.39
13,HMSMNGNMIHATVIWKGRYFLVKMFFPQLTKPKRAEVQAQIEKAYPGSRVASYHITDYKPGEQFLHV,-1.84
14,HMSMPEVLSDRELEIFRMIGTGMSTGDIAKKLNISVNTIESHRKKIKDKLGIQKGSELVKAAVQWVSTQQ,-0.741
15,HMSMSVLFSELDQKDAGVIVEKLKERKIPYELQSGGSAIMVPANVLHETRLQLAAEGLPQSS,-0.0383
16,HMSMTVHGALRLLQLPTIADRPYTLKEIREAYREQAQNHHPDAGGSADAMRRLNEAYQFLKERYRQA,-0.449
17,HMSNEKVVKFAQELLVDEERSAISPALISAKIDQVLMFKPAWNEGLDRDAVVNELVRRFSIW,-1.24
18,HMSNGFFELKTSQQDELIDLIDSHTNFVRTKIEGELITAFLKLPMDAEEFNKLLFTNGIILSHLVKRK,-0.713
19,HMSNIIGNTAYSAIPDKQYFRLKSETAEKVANYLTENNIPFSGRINGDKTTLTIGQKNVDDYKAAVATVTG,0.0528
20,HMSNIVNYEVYVYQNDAWDLLARYPSEKRAEAIEYAKSTEFSLNRPTKVIRETYDLDTQKFQEALIYLSE,-0.743
21,HMSNLNHSFQYKKNIGRKISLTYLGRDNESISKIYELIDSNDSGILVKNKNVEIFIHYEKIVSAKIKVS,-1.78
22,HMSNLTDLVSAKEAEVYLHFLESGSTAGMTEAELRAVRKIEELIQSNKIDYNGILRIRNETVK,0.0216
23,HMSNNLAYSQFLDRVKNKEIRKVEIRGQSIVGYTSNNETFKTYAPLNDPKMYDELLTNDVQVQVDPP,-0.0765
24,HMSNQLAVPDVTNMKANAAADRLRQQGLRVELKTESSNTVPRGMAIRTDPAASTMVARGGRVTLIISSGKG,-0.248
25,HMSNSGFVKNNGKTEFYDASGRQAKSSWINISGKWYYFDLNGTMVTGWQRISNKWYYFLEDGSK,-0.0724
